Assay results published in PMC8012516, “Antimicrobial peptide DP7 with potential activity against SARS coronavirus infections” (Signal Transduction and Targeted Therapy, 2021).

What was measured:
[1] = biological target: T1, S-receptor-binding domain (RBD)-Fc of SARS-CoV-2 (SARS-CoV-2, UniProt P0DTC2); assay: SPR; conditions: both partners purified
T1 construct: also called S-RBD-Fc of SARS-CoV-2; S-RBD-Fc

[2] = biological target: angiotensin-converting enzyme 2 (UniProt Q9BYF1 18-805); assay: SPR; Biacore; who was immobilised and the conditions are not given; conditions: both partners purified
angiotensin-converting enzyme 2, sequence (Q9BYF1 18-805): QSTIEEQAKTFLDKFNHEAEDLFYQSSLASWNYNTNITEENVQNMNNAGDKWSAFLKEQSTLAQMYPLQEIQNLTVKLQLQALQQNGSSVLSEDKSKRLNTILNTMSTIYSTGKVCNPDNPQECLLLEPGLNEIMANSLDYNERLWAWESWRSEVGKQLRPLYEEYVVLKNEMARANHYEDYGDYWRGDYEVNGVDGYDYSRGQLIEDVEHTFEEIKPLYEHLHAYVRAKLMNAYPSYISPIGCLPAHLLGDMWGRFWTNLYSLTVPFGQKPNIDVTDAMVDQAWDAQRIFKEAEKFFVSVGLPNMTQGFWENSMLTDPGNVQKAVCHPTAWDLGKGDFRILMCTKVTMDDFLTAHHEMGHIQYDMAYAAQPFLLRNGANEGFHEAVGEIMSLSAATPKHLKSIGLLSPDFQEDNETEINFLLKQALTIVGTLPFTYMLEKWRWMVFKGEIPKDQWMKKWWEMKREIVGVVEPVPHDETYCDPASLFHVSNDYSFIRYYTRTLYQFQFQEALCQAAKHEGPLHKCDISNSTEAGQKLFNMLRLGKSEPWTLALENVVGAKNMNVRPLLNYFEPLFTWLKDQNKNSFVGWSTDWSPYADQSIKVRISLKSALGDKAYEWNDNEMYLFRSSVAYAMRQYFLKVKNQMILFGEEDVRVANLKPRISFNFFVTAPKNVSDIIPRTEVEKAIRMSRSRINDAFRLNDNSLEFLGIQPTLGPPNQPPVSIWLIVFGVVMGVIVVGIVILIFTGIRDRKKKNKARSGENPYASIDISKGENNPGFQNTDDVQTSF

Q: VQWRIRVAVIRK (also called antimicrobial peptide DP7) [antibacterial peptide DP7] was tested. Which Kd [1] did it give?
A: 51.9 nM

Q: And the Kd [2]?
A: 227 nM
